The record followed here is publication PMC3368898.

Usually stoichiometry N stands for the number of molecules, sites or subunits per partner or assembly.

Holding throughout (experiment): […]; 10 mM Tris pH 7.4, 150 mM NaCl, 1 mM EDTA
Assay [1] addresses Col–PfC fragment, endogenous proteolytic fragment of rEPclA with only the Col and PfC domains (Escherichia coli O157:H7 strain RIMD 0509952 (Sakai)).
For assay [2], the target named is PfC domain of EPclA (residues 363-426) after removal of thioredoxin by thrombin.
The target of assay [3] is PfN–PCoil fragment of EPclA (residues 1-250).
Assay [4] deals with Trx–PfC, PfC domain of EPclA (residues 363-426) fused to thioredoxin.

“Col–PfC fragment, endogenous proteolytic fragment of rEPclA with only the Col and PfC domains (domain or fragment)” came in with a stoichiometry N in assay [1] of 3.
“PfC domain of EPclA (residues 363-426) after removal of thioredoxin by thrombin (domain or fragment)” showed a stoichiometry N in assay [2] of 3.
“PfN–PCoil fragment of EPclA (residues 1-250) (domain or fragment)” returned a stoichiometry N in assay [3] of 3.
With “Trx–PfC, PfC domain of EPclA (residues 363-426) fused to thioredoxin (domain or fragment)”, the stoichiometry N in assay [4] came to 3.
